From patent publication US20210130436A1 (published 2021)

What was measured:
[1] = molecular target: T1, human PD-L1, full-length, on CHO cells (human, UniProt Q9NZQ7 19-290); test: flow cytometry, CHO cells stably expressing PD-L1
T1 construct: also called huPD-L1; CD274

[2] = molecular target: T2, human CTLA4 (CTLA-4), full-length, on CHO cells (human, UniProt P16410 36-223); test: flow cytometry, CHO cells stably expressing CTLA4
T2 construct: also called huCTLA4

[3] = molecular target: T3, human PD-L1 (full-length, expressed on CHO cells) (human, UniProt Q9NZQ7 19-290); test: flow cytometry, CHO cells expressing huPD-L1, PE anti-human Fc
T3 construct: also called huPD-L1; CD274
T3 sequence (Q9NZQ7 19-290): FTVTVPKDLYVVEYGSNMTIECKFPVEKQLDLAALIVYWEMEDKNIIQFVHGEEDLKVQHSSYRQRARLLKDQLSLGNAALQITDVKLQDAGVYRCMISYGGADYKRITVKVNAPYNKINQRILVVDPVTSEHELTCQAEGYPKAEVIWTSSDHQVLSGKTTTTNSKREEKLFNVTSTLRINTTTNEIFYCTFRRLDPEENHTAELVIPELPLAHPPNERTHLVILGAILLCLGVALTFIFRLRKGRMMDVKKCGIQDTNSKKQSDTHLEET

[4] = molecular target: T4, CD28 (endogenously expressed on Jurkat/IL2 reporter cells) (human, UniProt P10747 19-220); test: flow cytometry, Jurkat/IL2 reporter cells (endogenous CD28), PE anti-human Fc
T4 construct: Endogenous CD28 of Jurkat cells; also called human CD28

[5] = molecular target: T5, CD28 endogenously expressed on Jurkat/IL2 reporter cells (human, UniProt P10747 19-220); test: flow cytometry, Jurkat cells (CD28)
T5 construct: also called Jurkats (CD28)

CD96 = molecular target: T6, CD96 (UniProt P40200 22-585, limits assumed); test: flow cytometry, Fc fusion at 100 nM, CD96-transfected cells
T6 construct: whole, on cells
T6 sequence (looked up): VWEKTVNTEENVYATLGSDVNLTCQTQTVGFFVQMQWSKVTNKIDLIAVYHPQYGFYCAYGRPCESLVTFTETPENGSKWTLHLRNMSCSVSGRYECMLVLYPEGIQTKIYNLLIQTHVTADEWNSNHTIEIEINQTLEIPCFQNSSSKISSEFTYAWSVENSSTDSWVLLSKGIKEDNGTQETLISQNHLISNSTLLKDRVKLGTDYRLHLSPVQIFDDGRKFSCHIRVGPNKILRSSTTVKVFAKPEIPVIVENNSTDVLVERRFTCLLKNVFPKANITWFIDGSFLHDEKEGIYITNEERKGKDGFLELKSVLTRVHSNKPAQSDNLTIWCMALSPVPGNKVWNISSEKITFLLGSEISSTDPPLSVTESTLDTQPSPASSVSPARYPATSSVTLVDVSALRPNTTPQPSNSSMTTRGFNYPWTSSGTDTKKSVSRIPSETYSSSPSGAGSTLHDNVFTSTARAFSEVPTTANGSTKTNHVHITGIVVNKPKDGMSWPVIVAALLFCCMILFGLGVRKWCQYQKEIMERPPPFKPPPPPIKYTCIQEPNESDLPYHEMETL

CD226 = molecular target: T7, CD226 (Homo sapiens (Human), UniProt Q15762 19-336); test: flow cytometry, Fc fusion at 100 nM, CD226-transfected cells
T7 sequence: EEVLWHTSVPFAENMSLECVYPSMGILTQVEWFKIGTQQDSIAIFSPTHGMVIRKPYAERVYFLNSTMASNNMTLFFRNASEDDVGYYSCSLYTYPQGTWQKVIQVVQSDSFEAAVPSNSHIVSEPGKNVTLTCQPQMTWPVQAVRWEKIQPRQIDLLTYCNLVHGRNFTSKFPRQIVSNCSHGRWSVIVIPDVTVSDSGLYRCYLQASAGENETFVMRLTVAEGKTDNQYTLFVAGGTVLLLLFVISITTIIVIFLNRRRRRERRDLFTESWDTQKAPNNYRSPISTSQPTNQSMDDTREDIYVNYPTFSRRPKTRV

[6] = molecular target: T8, CD28 on Jurkat/IL2 reporter cells (human, UniProt P10747 19-220); test: flow cytometry, Jurkat cells (CD28)
T8 construct: whole, on cells; Endogenous CD28 of Jurkat cells; also called Jurkats (CD28)

T1 sequence (Q9NZQ7 19-290): as the sequence (Q9NZQ7 19-290) above
T2 sequence (P16410 36-223): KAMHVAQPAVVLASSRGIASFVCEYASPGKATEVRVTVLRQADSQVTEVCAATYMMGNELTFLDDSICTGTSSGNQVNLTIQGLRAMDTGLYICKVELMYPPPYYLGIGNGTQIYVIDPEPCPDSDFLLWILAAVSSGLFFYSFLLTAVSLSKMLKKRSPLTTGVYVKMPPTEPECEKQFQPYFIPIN

B1: variant CD80 IgV-Fc D46V/M47L (Fc fusion, not shown: small tags and cut ends; a dimerising Fc or GST)
chain: VIHVTKEVKEVATLSCGHNVSVEELAQTRIYWQKEKKMVLTMMSGVLNIWPEYKNRTIFDITNNLSIVILALRPSDEGTYECVVLKYEKDAFKREHLAEVTLSVKAD
MFI at 33.3 nM [1]: 3900 MFI
MFI at 33.3 nM [2]: 49700 MFI

B2: variant CD80 IgV-Fc D46V/M47L/V68M/L85Q (Fc fusion, not shown: small tags and cut ends; a dimerising Fc or GST)
chain: VIHVTKEVKEVATLSCGHNVSVEELAQTRIYWQKEKKMVLTMMSGVLNIWPEYKNRTIFDITNNLSIMILALRPSDEGTYECVVQKYEKDAFKREHLAEVTLSVKAD
MFI at 33.3 nM [1]: 29700 MFI
MFI at 33.3 nM [2]: 32500 MFI

B3: variant CD80 IgV-Fc E35D/D46V/V68M/L85Q (Fc fusion, not shown: small tags and cut ends; a dimerising Fc or GST)
chain: VIHVTKEVKEVATLSCGHNVSVEELAQTRIYWQKDKKMVLTMMSGVMNIWPEYKNRTIFDITNNLSIMILALRPSDEGTYECVVQKYEKDAFKREHLAEVTLSVKAD
MFI at 33.3 nM [1]: 23600 MFI
MFI at 33.3 nM [2]: 32200 MFI

B4: variant CD80 IgV-Fc Q27H/E35D/M47L/L85Q/R94Q/E95K (Fc fusion, not shown: a dimerising Fc or GST)
chain: VIHVTKEVKEVATLSCGHNVSVEELAHTRIYWQKDKKMVLTMMSGDLNIWPEYKNRTIFDITNNLSIVILALRPSDEGTYECVVQKYEKDAFKQKHLAEVTLSVKAD
MFI at 33.3 nM [3]: 36100 MFI
MFI at 33.3 nM [4]: 282 MFI

B5: variant CD80 IgV-Fc E35D/D46V/M47L (Fc fusion, not shown: small tags and cut ends; a dimerising Fc or GST)
chain: VIHVTKEVKEVATLSCGHNVSVEELAQTRIYWQKDKKMVLTMMSGVLNIWPEYKNRTIFDITNNLSIVILALRPSDEGTYECVVLKYEKDAFKREHLAEVTLSVKAD
MFI at 33.3 nM [1]: 7990 MFI
MFI at 33.3 nM [2]: 45000 MFI

B6: variant CD80 IgV-Fc S15P/Q33L/E35D/M47L/L85Q (Fc fusion, not shown: a dimerising Fc or GST)
chain: VIHVTKEVKEVATLPCGHNVSVEELAQTRIYWLKDKKMVLTMMSGDLNIWPEYKNRTIFDITNNLSIVILALRPSDEGTYECVVQKYEKDAFKREHLAEVTLSVKAD
MFI at 33.3 nM [4]: 266 MFI

B7: variant CD80 IgV-Fc M47L/L85Q (Fc fusion, not shown: small tags and cut ends; a dimerising Fc or GST)
chain: VIHVTKEVKEVATLSCGHNVSVEELAQTRIYWQKEKKMVLTMMSGDLNIWPEYKNRTIFDITNNLSIVILALRPSDEGTYECVVQKYEKDAFKREHLAEVTLSVKAD
MFI at 33.3 nM [1]: 5800 MFI
MFI at 33.3 nM [5]: 88.1 MFI

B8: variant CD80 IgV-Fc E35D/D46V/V68M (Fc fusion, not shown: small tags and cut ends; a dimerising Fc or GST)
chain: VIHVTKEVKEVATLSCGHNVSVEELAQTRIYWQKDKKMVLTMMSGVMNIWPEYKNRTIFDITNNLSIMILALRPSDEGTYECVVLKYEKDAFKREHLAEVTLSVKAD
MFI at 33.3 nM [1]: 26100 MFI
MFI at 33.3 nM [2]: 31200 MFI

B9: variant CD80 IgV-Fc Q33R/E35D/K37E/M47V/L85Q (Fc fusion, not shown: a dimerising Fc or GST)
chain: VIHVTKEVKEVATLSCGHNVSVEELAQTRIYWRKDKEMVLTMMSGDVNIWPEYKNRTIFDITNNLSIVILALRPSDEGTYECVVQKYEKDAFKREHLAEVTLSVKAD
MFI at 33.3 nM [3]: 44400 MFI
MFI at 33.3 nM [4]: 258 MFI

B10: variant CD80 IgV-Fc E35D/D46V/M47L/V68M (Fc fusion, not shown: small tags and cut ends; a dimerising Fc or GST)
chain: VIHVTKEVKEVATLSCGHNVSVEELAQTRIYWQKDKKMVLTMMSGVLNIWPEYKNRTIFDITNNLSIMILALRPSDEGTYECVVLKYEKDAFKREHLAEVTLSVKAD
MFI at 33.3 nM [1]: 29300 MFI
MFI at 33.3 nM [2]: 34300 MFI

B11: variant CD80 IgV-Fc E35D/D46V (Fc fusion, not shown: small tags and cut ends; a dimerising Fc or GST)
chain: VIHVTKEVKEVATLSCGHNVSVEELAQTRIYWQKDKKMVLTMMSGVMNIWPEYKNRTIFDITNNLSIVILALRPSDEGTYECVVLKYEKDAFKREHLAEVTLSVKAD
MFI at 33.3 nM [1]: 3970 MFI
MFI at 33.3 nM [2]: 50100 MFI

B12: variant CD80 IgV-Fc D46V/V68M/L85Q (Fc fusion, not shown: small tags and cut ends; a dimerising Fc or GST)
chain: VIHVTKEVKEVATLSCGHNVSVEELAQTRIYWQKEKKMVLTMMSGVMNIWPEYKNRTIFDITNNLSIMILALRPSDEGTYECVVQKYEKDAFKREHLAEVTLSVKAD
MFI at 33.3 nM [1]: 4170 MFI
MFI at 33.3 nM [2]: 7570 MFI

B13: variant CD80 IgV-Fc L85Q (Fc fusion, not shown: small tags and cut ends; a dimerising Fc or GST)
chain: VIHVTKEVKEVATLSCGHNVSVEELAQTRIYWQKEKKMVLTMMSGDMNIWPEYKNRTIFDITNNLSIVILALRPSDEGTYECVVQKYEKDAFKREHLAEVTLSVKAD
MFI at 33.3 nM [1]: 97 MFI
MFI at 33.3 nM [5]: 35 MFI
MFI at 33.3 nM [2]: 3000 MFI

B14: variant CD80 IgV-Fc Q33K/E35D/M47V/K89E/K93R (Fc fusion, not shown: a dimerising Fc or GST)
chain: VIHVTKEVKEVATLSCGHNVSVEELAQTRIYWKKDKKMVLTMMSGDVNIWPEYKNRTIFDITNNLSIVILALRPSDEGTYECVVLKYEEDAFRREHLAEVTLSVKAD
MFI at 33.3 nM [3]: 39100 MFI
MFI at 33.3 nM [4]: 276 MFI

B15: variant CD80 IgV-Fc E35D/M47I/K54R/L85E (Fc fusion, not shown: a dimerising Fc or GST)
chain: VIHVTKEVKEVATLSCGHNVSVEELAQTRIYWQKDKKMVLTMMSGDINIWPEYRNRTIFDITNNLSIVILALRPSDEGTYECVVEKYEKDAFKREHLAEVTLSVKAD
MFI at 33.3 nM [3]: 36900 MFI

B16: variant CD155 IgV-Fc L104E (Fc fusion, not shown: a dimerising Fc or GST)
chain: WPPPGTGDVVVQAPTQVPGFLGDSVTLPCYLQVPNMEVTHVSQLTWARHGESGSMAVFHQTQGPSYSESKRLEFVAARLGAELRNASLRMFGLRVEDEGNYTCEFVTFPQGSRSVDIWLRVL
MFI at 100 nM (CD96): 1560 MFI

B17: variant CD155 IgV-Fc S42G (Fc fusion, not shown: a dimerising Fc or GST)
chain: WPPPGTGDVVVQAPTQVPGFLGDSVTLPCYLQVPNMEVTHVGQLTWARHGESGSMAVFHQTQGPSYSESKRLEFVAARLGAELRNASLRMFGLRVEDEGNYTCLFVTFPQGSRSVDIWLRVL
MFI at 100 nM (CD226): 2450 MFI
MFI at 100 nM (CD96): 1700 MFI

B18: variant CD155 IgV-Fc L104Q (Fc fusion, not shown: a dimerising Fc or GST)
chain: WPPPGTGDVVVQAPTQVPGFLGDSVTLPCYLQVPNMEVTHVSQLTWARHGESGSMAVFHQTQGPSYSESKRLEFVAARLGAELRNASLRMFGLRVEDEGNYTCQFVTFPQGSRSVDIWLRVL
MFI at 100 nM (CD226): 3790 MFI
MFI at 100 nM (CD96): 1540 MFI

B19: variant CD155 IgV-Fc S52M/V57L (Fc fusion, not shown: a dimerising Fc or GST)
chain: WPPPGTGDVVVQAPTQVPGFLGDSVTLPCYLQVPNMEVTHVSQLTWARHGEMGSMALFHQTQGPSYSESKRLEFVAARLGAELRNASLRMFGLRVEDEGNYTCLFVTFPQGSRSVDIWLRVL
MFI at 100 nM (CD226): 2430 MFI
MFI at 100 nM (CD96): 1860 MFI

B20: variant CD155 IgV-Fc S42C/S52L (Fc fusion, not shown: a dimerising Fc or GST)
chain: WPPPGTGDVVVQAPTQVPGFLGDSVTLPCYLQVPNMEVTHVCQLTWARHGELGSMAVFHQTQGPSYSESKRLEFVAARLGAELRNASLRMFGLRVEDEGNYTCLFVTFPQGSRSVDIWLRVL
MFI at 100 nM (CD226): 2150 MFI
MFI at 100 nM (CD96): 1480 MFI

B21: WT CD80 ECD-Fc H22.6 (Fc fusion, not shown: a dimerising Fc or GST)
chain: VIHVTKEVKEVATLSCGHNVSVEELAQTRIYWQKEKKMVLTMMSGDMNIWPEYKNRTIFDITNNLSIVILALRPSDEGTYECVVLKYEKDAFKREHLAEVTLSVKADFPTPSISDFEIPTSNIRRIICSTSGGFPEPHLSWLENGEELNAINTTVSQDPETELYAVSSKLDFNMTTNHSFMCLIKYGHLRVNQTFNWNTTKQEHFPDN
notes: Control; The token H22.6 is not explained
MFI at 33.3 nM [6]: 43 MFI
